Experimental data from the supplement of paper PMC7877785.
± gives the uncertainty stated by the source.

Assay: self-splicing fitness, log relative to wild type (ln ratio); higher = more splicing; Tetrahymena group I intron in knt gene, E. coli kanamycin selection, DiMSum; sequences stand for … in CUCUCU…GGAGGGAAAAGUUAUCAGGCAUGCACCUGGUAGCUAGUCUUUAAACCAAUAGAUUGCAUCGGUUUAAAAGGCAAGACCGUCAAAUUGCGGGAAAGGGGUCAACAGCCGUUCAGUACCAAGUCUCAGGGGAAACUUUGAGAUGGCCUUGCAAAGGGUAUGGUAAUAAGCUGACGGACAUGGUCCUAACCACGCAGCCAAGUCCUAAGUCAACAGAUCUUCUGUUGAUAUGGAUGCAGUUCACAGACUAAAUGUCGGUCGGGGAAGAUGUAUUCUUCUCAUAAGAUAUAGUCGGACCUCUCCUUAAUGGGAGCUAGCGGAUGAAGUGAUGCAACACUGGAGCCGCUGGGAACUAAUUUGUAUGCGAAAGUAUAUUGAUUAGUUUUGGAGUACUCGUGGUCG
Outline: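 Pooled colonies went to amplicon sequencing on an Illumina HiSeq 2500 after six replicate transformations. The plates were LB agar with 100 μg/mL carbenicillin, 50 μM IPTG and 0.2% rhamnose, with or without 25 μg/mL kanamycin, incubated overnight at 37°C or 30°C. The E. coli BL21(DE3) library had all eight P1ex-region intron nucleotides randomised, the intron placed in the knt kanamycin-resistance gene on pET-22b(+). DiMSum fitness is the error-weighted combination of replicate fold changes, kanamycin against none, normalised to wild type.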

| Sequence | self-splicing fitness (ln) (30 °C) | self-splicing fitness (ln) (37 °C) |
| --- | --- | --- |
| AAGUAGCAAUAUUACGUUGC | -3.66 ± 0.14 | -3.19 ± 0.21 |
| AAGUAGCAAUAUUACGUUGG | -2.96 ± 0.18 | -2.2 ± 0.23 |
| AAUAAGCAAUAUUACGAACU | -0.169 ± 0.11 | 0.509 ± 0.14 |
| AAUAAGCAAUAUUACGAGCC | -3.73 ± 0.29 | -1.64 ± 0.22 |
| AAUAAGCAAUAUUACGCAGA | -3.73 ± 0.3 | -2.38 ± 0.23 |
| AAUAAGCAAUAUUACGCCGA | -0.856 ± 0.14 | -0.632 ± 0.16 |
| AAUAAGCAAUAUUACGCGAA | -1.74 ± 0.12 | -1.01 ± 0.12 |
| AAUAAGCAAUAUUACGCGGU | -3.83 ± 0.24 | -2.36 ± 0.17 |
| AAUAAGCAAUAUUACGCUGU | -2.61 ± 0.23 | -1.92 ± 0.22 |
| AAUAAGCAAUAUUACGCUUG | -1.39 ± 0.13 | -0.982 ± 0.15 |
| AAUAAGCAAUAUUACGGGCU | -1.54 ± 0.14 | -1.6 ± 0.14 |
| AAUAAGCAAUAUUACGUAUG | -2.2 ± 0.11 | -0.966 ± 0.12 |
| AAUAAGCAAUAUUACGUCUA | -0.766 ± 0.077 | 0.434 ± 0.1 |
| AAUAAGCAAUAUUACGUUAG | -4.52 ± 0.19 | -2.69 ± 0.17 |
| AAUAAGCAAUAUUACGUUGG | -2.74 ± 0.28 | -3 ± 0.38 |
| AAUAAGCAAUAUUACGUUUG | -3.16 ± 0.11 | -1.36 ± 0.1 |
| AAUCAGCAAUAUUACGAACC | -0.433 ± 0.11 | 0.499 ± 0.18 |
| AAUCAGCAAUAUUACGACCA | -0.116 ± 0.1 | 0.885 ± 0.12 |
| AAUCAGCAAUAUUACGAGAU | -2.72 ± 0.11 | -0.708 ± 0.1 |
| AAUCAGCAAUAUUACGAUAC | -0.844 ± 0.081 | -0.307 ± 0.11 |
| AAUCAGCAAUAUUACGAUCA | 0.364 ± 0.09 | 0.109 ± 0.11 |
| AAUCAGCAAUAUUACGCAUC | -0.287 ± 0.082 | 0.0734 ± 0.094 |
| AAUCAGCAAUAUUACGCCCA | -0.426 ± 0.16 | 0.216 ± 0.21 |
| AAUCAGCAAUAUUACGCCGU | -0.744 ± 0.085 | -0.531 ± 0.099 |

| Sequence | self-splicing fitness (ln) (30 °C) | self-splicing fitness (ln) (37 °C) |
| --- | --- | --- |
| AAUCAGCAAUAUUACGCCUA | -0.0982 ± 0.08 | 0.103 ± 0.09 |
| AAUCAGCAAUAUUACGCGAG | -0.887 ± 0.068 | -1.07 ± 0.088 |
| AAUCAGCAAUAUUACGCGUG | -0.227 ± 0.074 | 0.204 ± 0.085 |
| AAUCAGCAAUAUUACGGAAC | -1.37 ± 0.064 | -0.769 ± 0.093 |
| AAUCAGCAAUAUUACGGCAG | -1 ± 0.095 | -1.32 ± 0.11 |
| AAUCAGCAAUAUUACGGGUC | -2.03 ± 0.086 | -1.76 ± 0.11 |
| AAUCAGCAAUAUUACGGUUA | -0.439 ± 0.08 | -0.408 ± 0.066 |
| AAUCAGCAAUAUUACGGUUG | -1.91 ± 0.082 | -0.913 ± 0.1 |
| AAUCAGCAAUAUUACGUAAA | -0.168 ± 0.067 | 0.573 ± 0.099 |
| AAUCAGCAAUAUUACGUAGU | -0.0974 ± 0.059 | 0.211 ± 0.074 |
| AAUCAGCAAUAUUACGUCCC | -0.818 ± 0.1 | 0.164 ± 0.14 |
| AAUCAGCAAUAUUACGUCGC | -2.06 ± 0.17 | -1.24 ± 0.17 |
| AAUCAGCAAUAUUACGUGAU | -0.823 ± 0.048 | -0.268 ± 0.067 |
| AAUCAGCAAUAUUACGUGCC | -1.4 ± 0.14 | -0.598 ± 0.16 |
| AAUCAGCAAUAUUACGUUCU | 0.0868 ± 0.061 | 0.0857 ± 0.085 |
| AAUGAGCAAUAUUACGAGAG | – | -2.7 ± 0.41 |
| AAUGAGCAAUAUUACGAGUG | -3.11 ± 0.27 | -2.23 ± 0.23 |
| AAUGAGCAAUAUUACGAUGA | -2.16 ± 0.12 | -1.77 ± 0.15 |
| AAUGAGCAAUAUUACGCAGC | -3.14 ± 0.44 | -2.54 ± 0.36 |
| AAUGAGCAAUAUUACGCAGG | -2.85 ± 0.14 | -3.18 ± 0.29 |
| AAUGAGCAAUAUUACGCAUG | -2.58 ± 0.17 | -0.519 ± 0.12 |
| AAUGAGCAAUAUUACGCAUU | -3.92 ± 0.47 | -2.74 ± 0.36 |
| AAUGAGCAAUAUUACGCCCG | -2.18 ± 0.43 | -1.76 ± 0.42 |
| AAUGAGCAAUAUUACGCGCA | -2.54 ± 0.34 | -1.76 ± 0.49 |

| Sequence | self-splicing fitness (ln) (30 °C) | self-splicing fitness (ln) (37 °C) |
| --- | --- | --- |
| AAUGAGCAAUAUUACGCGUU | -3.81 ± 0.27 | -2.06 ± 0.23 |
| AAUGAGCAAUAUUACGCUGA | -3.08 ± 0.38 | -2.12 ± 0.24 |
| AAUGAGCAAUAUUACGGAAU | -4.25 ± 0.37 | -2.34 ± 0.32 |
| AAUGAGCAAUAUUACGGAGU | – | -0.994 ± 0.44 |
| AAUGAGCAAUAUUACGGGUA | – | -0.858 ± 0.23 |
| AAUGAGCAAUAUUACGGUCU | -1.96 ± 0.13 | -0.956 ± 0.13 |
| AAUGAGCAAUAUUACGGUGU | -4.53 ± 0.29 | -2.55 ± 0.19 |
| AAUGAGCAAUAUUACGGUUA | -3.02 ± 0.22 | -1.86 ± 0.15 |
| AAUGAGCAAUAUUACGUAAA | -3.26 ± 0.18 | -1.1 ± 0.18 |
| AAUGAGCAAUAUUACGUAUG | – | -2.92 ± 0.28 |
| AAUGAGCAAUAUUACGUGUG | -4.35 ± 0.3 | -1.65 ± 0.17 |
| AAUGAGCAAUAUUACGUUGA | -3.71 ± 0.24 | -2.25 ± 0.17 |
| AAUUAGCAAUAUUACGAAGA | -1.25 ± 0.17 | -0.985 ± 0.16 |
| AAUUAGCAAUAUUACGACUA | 0.0301 ± 0.1 | 0.169 ± 0.099 |
| AAUUAGCAAUAUUACGCAGA | -1.71 ± 0.33 | -1.24 ± 0.31 |
| AAUUAGCAAUAUUACGCAGG | -2.44 ± 0.23 | -1.89 ± 0.23 |
| AAUUAGCAAUAUUACGCAUC | -2.79 ± 0.24 | -1.15 ± 0.2 |
| AAUUAGCAAUAUUACGCCGG | -2.62 ± 0.34 | -0.87 ± 0.4 |
| AAUUAGCAAUAUUACGCUGA | -2.75 ± 0.4 | -2.42 ± 0.27 |
| AAUUAGCAAUAUUACGGACC | – | -1.07 ± 0.48 |
| AAUUAGCAAUAUUACGGAGC | -2.52 ± 0.3 | -2.64 ± 0.33 |
| AAUUAGCAAUAUUACGGAUA | -1.75 ± 0.11 | -0.926 ± 0.11 |
| AAUUAGCAAUAUUACGGGGG | -2.91 ± 0.15 | -2.9 ± 0.27 |
| AAUUAGCAAUAUUACGUAAG | -1.82 ± 0.12 | -0.936 ± 0.13 |

| Sequence | self-splicing fitness (ln) (30 °C) | self-splicing fitness (ln) (37 °C) |
| --- | --- | --- |
| AAUUAGCAAUAUUACGUACA | -0.782 ± 0.086 | -0.498 ± 0.096 |
| AAUUAGCAAUAUUACGUAGC | -3.24 ± 0.25 | -1.08 ± 0.32 |
| AAUUAGCAAUAUUACGUCAU | -2.24 ± 0.18 | -1.7 ± 0.17 |
| AAUUAGCAAUAUUACGUCCC | -0.346 ± 0.41 | -0.0336 ± 0.49 |
| AAUUAGCAAUAUUACGUGCG | -0.879 ± 0.12 | -0.209 ± 0.14 |
| AAUUAGCAAUAUUACGUUCG | -1.16 ± 0.12 | -0.728 ± 0.18 |
| ACAAAGCAAUAUUACGACCG | -0.343 ± 0.1 | 0.578 ± 0.13 |
| ACAAAGCAAUAUUACGAUAU | -2.1 ± 0.088 | -1.15 ± 0.1 |
| ACAAAGCAAUAUUACGCAUC | -3.49 ± 0.21 | -1.74 ± 0.2 |
| ACAAAGCAAUAUUACGCCCG | -0.191 ± 0.13 | 0.177 ± 0.16 |
| ACAAAGCAAUAUUACGCCUG | -0.933 ± 0.07 | -0.0625 ± 0.085 |
| ACAAAGCAAUAUUACGGGGC | -3.69 ± 0.23 | -3.28 ± 0.27 |
| ACAAAGCAAUAUUACGGUAA | -2.45 ± 0.17 | -1.49 ± 0.13 |
| ACAAAGCAAUAUUACGUACG | -1.84 ± 0.068 | -0.615 ± 0.087 |
| ACAAAGCAAUAUUACGUAUC | -2.27 ± 0.072 | -1.69 ± 0.099 |
| ACAAAGCAAUAUUACGUCAG | -2.7 ± 0.14 | -1.47 ± 0.12 |
| ACAAAGCAAUAUUACGUCGA | -1.98 ± 0.092 | -1.02 ± 0.094 |
| ACAAAGCAAUAUUACGUGGA | -3.55 ± 0.15 | -2.44 ± 0.11 |
| ACAAAGCAAUAUUACGUUCU | -0.539 ± 0.055 | -0.567 ± 0.065 |
| ACACAGCAAUAUUACGAAGG | -1.75 ± 0.061 | -2.18 ± 0.11 |
| ACACAGCAAUAUUACGACUA | -1.22 ± 0.091 | -0.346 ± 0.084 |
| ACACAGCAAUAUUACGAGAC | -3.25 ± 0.14 | -2.54 ± 0.17 |
| ACACAGCAAUAUUACGAUAU | -1.63 ± 0.08 | -1.62 ± 0.098 |
| ACACAGCAAUAUUACGCACA | -1.16 ± 0.1 | -0.111 ± 0.1 |
